In article PMC6422423, “Constitutively active BRS3 is a genuinely orphan GPCR in placental mammals” (PLoS Biology, 2019):

Tests used:
[1] = molecular target: chicken bombesin receptor subtype-3 (chicken (Gallus gallus)); assay: radioligand binding; displacement of 50 pM [125I]-Tyr42-GRP by unlabeled peptide on disaggregated transfected HEK293 cells; 1 h at 21°C; 24.5 mM HEPES pH 7.4, 98 mM NaCl; bound tracer separated by centrifugation
[2] = molecular target: turtle bombesin receptor subtype-3 (turtle (Chrysemys picta)); assay: as above
turtle bombesin receptor subtype-3 (turtle (Chrysemys picta)), sequence (main, as listed by the source): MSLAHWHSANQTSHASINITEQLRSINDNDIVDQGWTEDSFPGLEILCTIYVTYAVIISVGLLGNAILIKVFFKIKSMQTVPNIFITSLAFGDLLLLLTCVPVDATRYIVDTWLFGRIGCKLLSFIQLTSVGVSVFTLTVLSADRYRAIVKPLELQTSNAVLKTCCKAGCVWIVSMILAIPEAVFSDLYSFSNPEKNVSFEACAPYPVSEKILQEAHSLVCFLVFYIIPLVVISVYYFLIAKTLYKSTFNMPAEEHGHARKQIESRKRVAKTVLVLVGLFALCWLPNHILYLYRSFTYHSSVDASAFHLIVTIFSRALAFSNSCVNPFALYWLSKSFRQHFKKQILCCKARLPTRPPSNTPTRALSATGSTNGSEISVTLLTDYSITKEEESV

[3] = molecular target: spotted gar bombesin receptor subtype-3 (spotted gar (Lepisosteus oculatus)); assay: as above
spotted gar bombesin receptor subtype-3 (spotted gar (Lepisosteus oculatus)), sequence (main, as listed by the source): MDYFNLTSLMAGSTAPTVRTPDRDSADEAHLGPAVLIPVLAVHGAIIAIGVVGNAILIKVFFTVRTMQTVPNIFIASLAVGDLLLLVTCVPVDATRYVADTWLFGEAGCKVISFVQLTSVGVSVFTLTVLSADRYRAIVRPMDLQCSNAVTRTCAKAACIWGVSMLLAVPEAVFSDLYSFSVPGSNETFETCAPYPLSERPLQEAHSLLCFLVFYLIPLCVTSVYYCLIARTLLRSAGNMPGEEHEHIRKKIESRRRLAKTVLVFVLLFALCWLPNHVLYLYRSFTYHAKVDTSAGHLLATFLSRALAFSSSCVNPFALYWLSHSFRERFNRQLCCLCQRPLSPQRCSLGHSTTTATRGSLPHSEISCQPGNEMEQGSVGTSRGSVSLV

[4] = molecular target: chicken bombesin receptor subtype-3 (chicken (Gallus gallus)); assay: radioligand binding; displacement of 50 pM [125I]-Tyr-NMB by unlabeled peptide on disaggregated transfected HEK293 cells; 1 h at 21°C; 24.5 mM HEPES pH 7.4, 98 mM NaCl; bound tracer separated by centrifugation
[5] = molecular target: aardvark bombesin receptor subtype-3 (aardvark (Orycteropus afer)); assay: as above
aardvark bombesin receptor subtype-3 (aardvark (Orycteropus afer)), sequence (P32247 other isoform, or with tags, fused parts or gaps): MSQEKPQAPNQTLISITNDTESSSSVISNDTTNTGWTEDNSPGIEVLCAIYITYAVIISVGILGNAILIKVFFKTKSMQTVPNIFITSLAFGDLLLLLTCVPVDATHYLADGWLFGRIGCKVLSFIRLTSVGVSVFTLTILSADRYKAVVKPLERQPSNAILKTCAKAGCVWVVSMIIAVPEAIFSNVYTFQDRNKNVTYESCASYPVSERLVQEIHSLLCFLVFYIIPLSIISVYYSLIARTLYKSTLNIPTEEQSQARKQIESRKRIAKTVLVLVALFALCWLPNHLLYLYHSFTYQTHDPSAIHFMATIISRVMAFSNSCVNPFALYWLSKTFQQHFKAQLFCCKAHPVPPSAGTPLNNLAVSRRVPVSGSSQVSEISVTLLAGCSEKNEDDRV

[6] = molecular target: turtle bombesin receptor subtype-3 (turtle (Chrysemys picta)); assay: as above
[7] = molecular target: spotted gar bombesin receptor subtype-3 (spotted gar (Lepisosteus oculatus)); assay: as above

Substance: neuromedin B, unlabeled ligand peptide of the radioligand binding assays
- IC50 [1]: 1.35 nM
- IC50 [2]: 1.14 nM
- IC50 [3]: 1.74 nM
- IC50 [4]: 2.26 nM
- Ki [5]: > 1000 nM
- IC50 [6]: 2.82 nM
- IC50 [7]: 2.65 nM
